The text below walks through data of publication PMC7613635 (Nature structural & molecular biology, 2022).

The target of test [1] is T1, Gallus gallus FANCD2 (Gallus gallus (chicken), UniProt Q68Y81 1-1439). The experiment in a line: cross-linking.
Test [2] deals with T1, Gallus gallus FANCD2. The experiment in a line: cryo-EM structure.

T1 sequence (Q68Y81 whole entry): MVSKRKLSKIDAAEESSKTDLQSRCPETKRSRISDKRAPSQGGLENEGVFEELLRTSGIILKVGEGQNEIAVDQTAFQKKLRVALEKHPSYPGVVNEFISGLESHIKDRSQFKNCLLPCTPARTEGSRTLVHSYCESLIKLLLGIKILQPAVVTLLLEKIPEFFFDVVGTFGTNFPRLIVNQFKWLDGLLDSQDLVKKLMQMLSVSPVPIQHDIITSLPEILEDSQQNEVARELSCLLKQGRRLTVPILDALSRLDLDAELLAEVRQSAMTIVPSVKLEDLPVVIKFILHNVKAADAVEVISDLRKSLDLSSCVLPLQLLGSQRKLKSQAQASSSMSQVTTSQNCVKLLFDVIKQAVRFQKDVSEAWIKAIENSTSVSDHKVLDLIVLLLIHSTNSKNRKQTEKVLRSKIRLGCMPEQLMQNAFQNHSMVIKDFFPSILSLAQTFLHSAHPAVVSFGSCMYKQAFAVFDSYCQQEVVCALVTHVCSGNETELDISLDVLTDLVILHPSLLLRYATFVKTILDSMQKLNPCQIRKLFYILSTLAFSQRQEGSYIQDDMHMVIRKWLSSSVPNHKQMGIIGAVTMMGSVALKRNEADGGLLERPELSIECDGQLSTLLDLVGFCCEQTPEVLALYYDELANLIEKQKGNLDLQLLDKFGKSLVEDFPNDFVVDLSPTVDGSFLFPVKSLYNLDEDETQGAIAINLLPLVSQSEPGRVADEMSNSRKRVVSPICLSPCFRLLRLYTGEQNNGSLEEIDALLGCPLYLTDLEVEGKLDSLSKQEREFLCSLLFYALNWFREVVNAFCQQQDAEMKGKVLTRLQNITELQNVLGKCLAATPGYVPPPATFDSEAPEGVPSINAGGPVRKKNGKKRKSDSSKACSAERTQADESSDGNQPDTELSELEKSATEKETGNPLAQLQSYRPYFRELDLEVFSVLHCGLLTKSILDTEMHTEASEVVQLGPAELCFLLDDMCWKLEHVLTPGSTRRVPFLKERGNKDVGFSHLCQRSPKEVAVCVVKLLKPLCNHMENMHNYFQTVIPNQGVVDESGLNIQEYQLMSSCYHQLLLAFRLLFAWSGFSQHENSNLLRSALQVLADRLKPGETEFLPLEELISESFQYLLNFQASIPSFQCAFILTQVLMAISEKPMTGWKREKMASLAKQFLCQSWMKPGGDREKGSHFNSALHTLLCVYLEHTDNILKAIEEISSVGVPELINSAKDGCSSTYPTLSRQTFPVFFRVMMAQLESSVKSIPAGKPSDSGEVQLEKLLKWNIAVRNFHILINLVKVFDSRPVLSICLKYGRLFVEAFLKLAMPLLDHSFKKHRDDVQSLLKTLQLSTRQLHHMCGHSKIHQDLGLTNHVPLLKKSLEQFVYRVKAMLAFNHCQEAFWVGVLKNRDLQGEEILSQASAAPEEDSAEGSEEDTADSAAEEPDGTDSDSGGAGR

B1: Gallus gallus FANCI, wild type (natural protein, Gallus gallus (chicken), UniProt B0I564 1-1338, looked up)
chain: MAQRILQLAAEGSPERLQEALQGLTEGELGDMVTRQALRGRETAALLKGIFKGSPCSQQSGVLRRLQVYKHCVSLVESGDLHVGKVSEIIGLLMLEARQLPGHALAELATLFVEVIKRGSLSNGKSLELFSTVLTALSNSKESLAYGKGELNGEEFKKQLINTLCSSKWDPQCVIHLANMFRDIPLSGEELQFVVEKVLRMFSKLDLQEIPPLVYQLLLLSAKGSKKTVLEGIISFFNQLDKRQKEEQRVPQSADLEVATVPLDQLRHVEGTVILHIVSAINLDQDIGEELIKHLKTEQQKDPGKALCPFSVSLLLSTAVKHRLQEQIFDFLKTSITRSCKDLQILQASKFLQDLCPQQYDVTAVILEVVKNSAFGWDHVTQGLVDLGFSLMESYEPKKSFGGKAAETNLGLSKMPAQQACKLGASILLETFKVHEPIRSDILEQVLNRVLTKAASPVSHFIDLLSNIVVSAPLVLQNSSSRVTETFDNLSFLPIDTVQGLLRAVQPLLKVSMSVRDSLILVLQKAIFSRQLDARKAAVAGFLLLLRNFKILGSLTSSQCSQAIGATQVQADVHACYNSAANEAFCLEILGSLRRCLSQQADVRLMLYEGFYDVLRRNSQLASSIMETLLSQIKQYYLPQQDLLPPLKLEGCIMAQGDQIFLQEPLAHLLCCIQHCLAWYKSTVHLCKGAEDEEEEEDVGFEQNFEEMLESVTRRMIKSELEDFELDKSADFSPSSGVGVKNNIYAIQVMGICEVLIEYNFKIGNFSKNKFEDVLGLFTCYNKLSEILKEKAGKNKSTLGNRIARSFLSMGFVSTLLTALFRDNAQSHEESLAVLRSSTEFMRYAVSVALQKVQQLEEMGQTDGPDGQNPEKMFQNLCKITRVLLWRYTSIPTAVEESGKKKGKSISLLCLEGLLRIFNTMQQLYAARIPQFLQALDITDGDAEEADINVTEKAAFQIRQFQRSLVNQLSSAEDDFNSKETQLLITILSTLSKLLDPGSQQFLQFLTWTVKICKENALEDLSCCKGLLTLLFSLHVLYKSPVSLLRELAQDIHACLGDIDQDVEIESRSHFAIVNVKTAAPTVCLLVLGQADKVLEEVDWLIKRLTILGSDTSEDSTQASNQTQALEKGVILQLGTLLTVFHELVQTALPAGSCVDSLLRSLSKTYAILTSLIKHYIQACRSTSNTVPGRLEKLVKLSGSHLTPQCYSFITYVQNIHSESLSFAEEKKKKKKEDETAVVSTVMAKVLRDTKPIPNLIFAIEQYEKFLIHLSKKSKVNLMQYMKLSTSRDFRINASMLDSVLQEQNTEDAENEPDNNQSGTAEQPDENQEPQKKRRRKK
As to B1, in the test with Gallus gallus FANCD2 [1], the binding result is on record as “binds”.

B2: phosphomimetic chicken FANCI (I^3D) (natural protein, Gallus gallus (chicken), UniProt B0I564 1-1338, looked up)
chain: MAQRILQLAAEGSPERLQEALQGLTEGELGDMVTRQALRGRETAALLKGIFKGSPCSQQSGVLRRLQVYKHCVSLVESGDLHVGKVSEIIGLLMLEARQLPGHALAELATLFVEVIKRGSLSNGKSLELFSTVLTALSNSKESLAYGKGELNGEEFKKQLINTLCSSKWDPQCVIHLANMFRDIPLSGEELQFVVEKVLRMFSKLDLQEIPPLVYQLLLLSAKGSKKTVLEGIISFFNQLDKRQKEEQRVPQSADLEVATVPLDQLRHVEGTVILHIVSAINLDQDIGEELIKHLKTEQQKDPGKALCPFSVSLLLSTAVKHRLQEQIFDFLKTSITRSCKDLQILQASKFLQDLCPQQYDVTAVILEVVKNSAFGWDHVTQGLVDLGFSLMESYEPKKSFGGKAAETNLGLSKMPAQQACKLGASILLETFKVHEPIRSDILEQVLNRVLTKAASPVSHFIDLLSNIVVSAPLVLQNSSSRVTETFDNLSFLPIDTVQGLLRAVQPLLKVSMSVRDSLILVLQKAIFSRQLDARKAAVAGFLLLLRNFKILGSLTSDQCDQAIGADQVQADVHACYNSAANEAFCLEILGSLRRCLSQQADVRLMLYEGFYDVLRRNSQLASSIMETLLSQIKQYYLPQQDLLPPLKLEGCIMAQGDQIFLQEPLAHLLCCIQHCLAWYKSTVHLCKGAEDEEEEEDVGFEQNFEEMLESVTRRMIKSELEDFELDKSADFSPSSGVGVKNNIYAIQVMGICEVLIEYNFKIGNFSKNKFEDVLGLFTCYNKLSEILKEKAGKNKSTLGNRIARSFLSMGFVSTLLTALFRDNAQSHEESLAVLRSSTEFMRYAVSVALQKVQQLEEMGQTDGPDGQNPEKMFQNLCKITRVLLWRYTSIPTAVEESGKKKGKSISLLCLEGLLRIFNTMQQLYAARIPQFLQALDITDGDAEEADINVTEKAAFQIRQFQRSLVNQLSSAEDDFNSKETQLLITILSTLSKLLDPGSQQFLQFLTWTVKICKENALEDLSCCKGLLTLLFSLHVLYKSPVSLLRELAQDIHACLGDIDQDVEIESRSHFAIVNVKTAAPTVCLLVLGQADKVLEEVDWLIKRLTILGSDTSEDSTQASNQTQALEKGVILQLGTLLTVFHELVQTALPAGSCVDSLLRSLSKTYAILTSLIKHYIQACRSTSNTVPGRLEKLVKLSGSHLTPQCYSFITYVQNIHSESLSFAEEKKKKKKEDETAVVSTVMAKVLRDTKPIPNLIFAIEQYEKFLIHLSKKSKVNLMQYMKLSTSRDFRINASMLDSVLQEQNTEDAENEPDNNQSGTAEQPDENQEPQKKRRRKK
Consider B2, for which the binding result with Gallus gallus FANCD2 [2] is on record as “binds”.
